Measurements from PMC13343975, “A connection between two ancient and essential cellular processes, iron-sulfur protein biogenesis and fatty acid synthesis, in Escherichia coli” (mBio, 2026).

Tests used:
6His-IscS [1] = molecular target: T1, 6His-IscS (E. coli, UniProt P0A6B7 1-404)
T1 construct: IscS cysteine desulfurase, E. coli; IscS-coding region (primers OSD56/OSD57, start codon to stop codon, 1,248 bp fragment) between EcoRI and XhoI of pET6His-TEV; The vector's name tells a TEV site between the 6His tag and the protein; no cleavage is told; also called pET-6His-TEV-iscS; source: E. coli MG1655(DE3), purified (Ni-nitrilotriacetic acid agarose); not shown: 6His, N-terminal, kept

6His-IscS [2] = molecular target: T1, 6His-IscS; test: native gel or EMSA; 6His-IscS 15 µM with 6His-ACP or variant 30 µM, 20 min at 37°C in 100 mM Hepes, 150 mM NaCl; non-denaturing 12% PAGE, Coomassie Blue; settings: both partners purified

T1 sequence (P0A6B7 whole entry, the tested form may be a part): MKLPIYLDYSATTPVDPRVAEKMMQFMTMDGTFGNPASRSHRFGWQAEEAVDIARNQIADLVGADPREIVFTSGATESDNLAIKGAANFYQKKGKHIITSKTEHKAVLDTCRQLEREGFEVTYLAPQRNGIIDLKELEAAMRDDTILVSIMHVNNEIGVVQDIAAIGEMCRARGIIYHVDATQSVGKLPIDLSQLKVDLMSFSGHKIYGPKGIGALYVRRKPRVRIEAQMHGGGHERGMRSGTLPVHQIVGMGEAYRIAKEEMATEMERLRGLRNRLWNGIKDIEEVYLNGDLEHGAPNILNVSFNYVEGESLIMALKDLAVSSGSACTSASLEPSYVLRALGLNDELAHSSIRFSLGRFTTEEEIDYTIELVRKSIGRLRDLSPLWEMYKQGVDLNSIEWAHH

| cysteine desulfurase activity of IscS (methylene blue assay), relative to IscS alone (6His-IscS [1]) [fold] | binding result (6His-IscS [2]) | Molecule |
| --- | --- | --- |
| 3 | – | acylated 6His-ACP (from UniProt P0A6A8 1-78) (natural protein) |
| – | binds | 6His-ACP (natural protein, E. coli, UniProt P0A6A8 1-78, looked up, preparation expected to comprise a mixture of apo-ACP, holo-ACP (phosphopantetheine-bound ACP, on Ser36) and a minor fraction of acylated ACP, acyl carrier protein (ACP), E. coli; ACP-coding region (primers OSD146/OSD147, start codon to stop codon, 263 bp fragment) between EcoRI and XhoI of pET6His-TEV; The vector's name tells a TEV site between the 6His tag and the protein; no cleavage is told; also called ACPWT; wild-type ACP; source: E. coli MG1655(DE3), 10 mM pantothenate in the culture, purified (Ni-nitrilotriacetic acid agarose); …) MSTIEERVKKIIGEQLGVKQEEVTNNASFVEDLGADSLDTVELVMALEEEFDTEIPDEEAEKITTVQAAIDYINGHQA |
